The source of these data is patent publication US20250101394, “NOVEL CRISPR-CAS12I SYSTEMS AND USES THEREOF” (Huidagene Therapeutics (Singapore) PTE. LTD., published 2025).

Common to all, as to details: tags: N-term SV40 NLS, C-term NP NLS
One series deals with T1, xCas12i-A165R (synthetic construct, A165R).
T1 chain: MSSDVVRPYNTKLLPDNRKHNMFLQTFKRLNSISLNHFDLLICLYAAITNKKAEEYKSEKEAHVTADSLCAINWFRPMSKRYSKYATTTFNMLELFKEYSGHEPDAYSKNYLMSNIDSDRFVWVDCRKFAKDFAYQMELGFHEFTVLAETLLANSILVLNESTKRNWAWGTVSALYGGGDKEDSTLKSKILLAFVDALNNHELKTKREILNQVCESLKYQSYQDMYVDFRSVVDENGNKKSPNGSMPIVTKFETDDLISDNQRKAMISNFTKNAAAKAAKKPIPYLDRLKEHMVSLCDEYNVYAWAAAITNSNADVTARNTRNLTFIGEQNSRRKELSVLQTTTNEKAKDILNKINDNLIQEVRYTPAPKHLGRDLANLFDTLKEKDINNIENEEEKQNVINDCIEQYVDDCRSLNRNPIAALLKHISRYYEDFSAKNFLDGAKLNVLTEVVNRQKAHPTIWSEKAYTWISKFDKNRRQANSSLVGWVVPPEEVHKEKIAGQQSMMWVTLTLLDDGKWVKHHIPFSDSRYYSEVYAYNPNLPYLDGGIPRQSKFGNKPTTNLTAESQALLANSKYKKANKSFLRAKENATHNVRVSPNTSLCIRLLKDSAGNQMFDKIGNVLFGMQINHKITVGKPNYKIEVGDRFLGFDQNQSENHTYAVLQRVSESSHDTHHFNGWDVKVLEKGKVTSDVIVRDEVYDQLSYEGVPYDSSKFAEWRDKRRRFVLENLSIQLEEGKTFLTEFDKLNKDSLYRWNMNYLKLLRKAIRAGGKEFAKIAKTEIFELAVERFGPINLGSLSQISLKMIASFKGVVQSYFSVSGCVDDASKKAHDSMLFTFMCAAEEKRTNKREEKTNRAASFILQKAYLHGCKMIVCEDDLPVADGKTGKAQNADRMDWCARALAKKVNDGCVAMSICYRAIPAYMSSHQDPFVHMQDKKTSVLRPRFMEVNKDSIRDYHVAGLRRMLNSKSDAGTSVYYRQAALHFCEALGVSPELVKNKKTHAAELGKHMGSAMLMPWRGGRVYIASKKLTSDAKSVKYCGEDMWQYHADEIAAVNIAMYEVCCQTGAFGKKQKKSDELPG
As to the kind of experiment: cell_activity; 5' TTN PAM; EGFP reporter HEK293T.

For series [1], the target named is T2, Cas12Max (xCas12i-N243R, v1.1) (synthetic construct).
T2 chain: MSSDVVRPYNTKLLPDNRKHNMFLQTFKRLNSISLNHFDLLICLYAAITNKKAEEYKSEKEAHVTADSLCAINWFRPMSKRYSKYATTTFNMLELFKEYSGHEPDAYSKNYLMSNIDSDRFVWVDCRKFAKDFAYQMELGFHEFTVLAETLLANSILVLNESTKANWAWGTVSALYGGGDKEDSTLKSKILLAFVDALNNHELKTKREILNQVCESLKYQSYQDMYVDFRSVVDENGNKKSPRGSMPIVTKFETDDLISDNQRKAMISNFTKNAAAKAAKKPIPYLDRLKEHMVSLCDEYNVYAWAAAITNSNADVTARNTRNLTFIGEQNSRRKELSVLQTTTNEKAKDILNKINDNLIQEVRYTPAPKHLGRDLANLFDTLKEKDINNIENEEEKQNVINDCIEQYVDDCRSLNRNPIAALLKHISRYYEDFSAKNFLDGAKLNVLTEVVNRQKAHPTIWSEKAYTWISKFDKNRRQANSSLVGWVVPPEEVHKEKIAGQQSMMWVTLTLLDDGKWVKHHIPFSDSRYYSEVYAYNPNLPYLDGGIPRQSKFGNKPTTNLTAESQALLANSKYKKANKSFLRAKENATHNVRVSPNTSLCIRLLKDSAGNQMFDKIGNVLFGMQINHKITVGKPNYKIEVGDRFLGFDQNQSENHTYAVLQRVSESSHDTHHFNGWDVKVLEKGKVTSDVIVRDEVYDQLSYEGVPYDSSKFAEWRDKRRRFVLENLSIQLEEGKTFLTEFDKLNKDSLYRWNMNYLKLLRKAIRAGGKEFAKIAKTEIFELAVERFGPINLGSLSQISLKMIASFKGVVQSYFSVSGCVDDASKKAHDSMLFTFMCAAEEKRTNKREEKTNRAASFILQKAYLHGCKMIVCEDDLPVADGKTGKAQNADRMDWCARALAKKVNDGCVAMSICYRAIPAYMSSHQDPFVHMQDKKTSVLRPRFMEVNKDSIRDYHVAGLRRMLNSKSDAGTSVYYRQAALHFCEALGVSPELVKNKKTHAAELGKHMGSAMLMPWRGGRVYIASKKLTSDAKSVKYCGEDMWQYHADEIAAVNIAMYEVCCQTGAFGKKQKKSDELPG
As to the kind of experiment: cell_activity; 5' TTN PAM; EGFP reporter HEK293T.

The target of series [2] is T3, xCas12i (SiCas12i, Cas12i12) (unidentified).
T3 chain: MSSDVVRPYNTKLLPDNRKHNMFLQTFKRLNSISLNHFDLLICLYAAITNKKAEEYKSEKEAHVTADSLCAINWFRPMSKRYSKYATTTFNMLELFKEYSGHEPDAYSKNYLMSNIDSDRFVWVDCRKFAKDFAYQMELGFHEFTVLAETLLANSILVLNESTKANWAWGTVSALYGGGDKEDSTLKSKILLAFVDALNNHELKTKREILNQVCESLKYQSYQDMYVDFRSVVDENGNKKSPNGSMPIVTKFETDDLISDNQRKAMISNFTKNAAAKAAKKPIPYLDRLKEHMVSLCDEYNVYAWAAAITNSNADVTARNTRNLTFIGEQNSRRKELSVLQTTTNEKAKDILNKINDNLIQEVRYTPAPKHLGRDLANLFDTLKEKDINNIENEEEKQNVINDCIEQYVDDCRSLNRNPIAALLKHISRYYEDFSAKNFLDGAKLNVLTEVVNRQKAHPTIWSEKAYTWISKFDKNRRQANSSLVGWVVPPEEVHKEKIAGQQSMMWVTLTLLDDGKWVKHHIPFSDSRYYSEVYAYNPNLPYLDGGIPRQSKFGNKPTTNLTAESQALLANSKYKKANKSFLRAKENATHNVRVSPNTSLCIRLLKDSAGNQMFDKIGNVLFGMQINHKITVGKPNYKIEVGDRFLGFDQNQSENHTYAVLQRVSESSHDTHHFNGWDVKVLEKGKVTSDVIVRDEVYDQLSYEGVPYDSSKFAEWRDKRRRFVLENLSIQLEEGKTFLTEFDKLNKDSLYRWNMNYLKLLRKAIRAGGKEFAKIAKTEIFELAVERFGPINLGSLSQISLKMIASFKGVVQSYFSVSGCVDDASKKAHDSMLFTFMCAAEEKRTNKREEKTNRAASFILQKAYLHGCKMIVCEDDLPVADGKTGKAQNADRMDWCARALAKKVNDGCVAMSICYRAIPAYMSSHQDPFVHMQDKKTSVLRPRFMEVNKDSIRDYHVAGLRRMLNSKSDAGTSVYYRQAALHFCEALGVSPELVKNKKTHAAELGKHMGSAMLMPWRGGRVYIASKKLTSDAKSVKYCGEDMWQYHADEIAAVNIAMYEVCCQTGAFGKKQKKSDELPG
In words: cell_activity; 5' TTN PAM; EGFP reporter HEK293T; DR-T1. The source says:
To vary xCas12i's dsDNA cleavage activity and expand its scope of PAM site recognition, the applicant engineered xCas12i protein via mutagenesis and screened for mutants with higher dsDNA cleavage activity and broader PAM using a dual plasmid fluorescent reporter system similar to the dual plasmid fluorescent reporter system in Example 1, except that the EGxxxxFP-targeting guide RNA (SEQ ID NO: 51; “crON”) coding sequence operably linked to U6 promoter was not located on the expression plasmid together with the xCas12i (or its mutant) coding sequence (SEQ ID NO: 31) but located on the reporter plasmid together with the BFP-P2A-EGxxxxFP coding sequence (SEQ ID NO: 41) (referring to “On-Target Reporter” in FIG. 1B). […] The applicant then individually transfected the expression plasmid and the reporter plasmid into HEK293T cells and analyzed them by FACS (FIG. 1B). […]

B1: crEGFP guide with DR-T1 ; EGxxxxFP insertion target (ssRNA ; dsDNA)
RNA: AUGACUCAGAAAUGUGUCCCCAGUUGACACCCAUUACAGUAGGAGCAUAC
DNA 1: GGATCCGTGTCTTTCCCATTACAGTAGGAGCATACGGGAGACAAGCTTTG
DNA 2: CAAAGCTTGTCTCCCGTATGCTCCTACTGTAATGGGAAAGACACGGATCC
B1: the binding signal was 3.15 fold of WT with xCas12i-A165R, 3.61 fold of WT in series [1] and 1 fold of WT in series [2].
